B1: CC7: human-specific anti-tau clone, Table 10; SEQ ID NO: 365 (protein)
scFv: QVQLQESGPSLVKPSQTLSLTCTVSGFSLTSNAVIWVRQAPGKAPEWVALIDVDGDAAYDPALKSRLSITRDTSKSQVSLSLRSVTTEDTAVYYCARDYGSWGYVSDIDYWGPGLLVTVSSEGKSSGASGESKVDDRVVRTQPSSVSGSLGQRVSITCSGSYITGSSVGWFQQVPGSGLKTVIYDNNDRPSGVPDRFSGSKSGDTATLTISSLQAEDEADYYCASYDTSNIGLFGSGTRLTVLG
modifications: CC7 amino acid sequence
B2: 3aG3: N-terminal anti-tau clone, Table 6; SEQ ID NO: 424 (protein)
chain: QVQLQESGPSLVKPSQTLSLTCTVSGFSLSSNGVGWVRQAPGKVPEWVGDISSSGKAYANPALKSRLSITRDTAKTQVFLSLSSVTTEDTAVYYCVRCRDGGVSYGYDIDYWGPGLLVTVSSEGKSSGASGESKVDDQAVLTQPPSVSGSPGQRVSITCSGSSSNIGGGNYLSWFQQVPGSAPKLLIYGATSRASGVPDRFSGSRSGNTATLTISSLQAEDEADYYCASFDTSSGGIFGAGTRLTVLG
modifications: 3aG3 amino acid sequence
B3: 3bG4: N-terminal anti-tau clone, Table 6; SEQ ID NO: 425 (protein)
chain: QVQLQESGPSLVKPSQTLSLTCTISGFSLISNGVGWVRQAPGKVPEWVGDIASSGKAYSNPALKSRLSITRDTSKSQVSLSLRSVTTEDTAVYYCVRCRDGGVTYGYDIDYWGPGLLVTVSSEGKSSGASGESKVDDQAVLTQPSSVSKSLGQSVSITCSGSTSNVGSGNDVSWFQQVPGSAPKLLFYGATNRASGVPDRFSGSRSGNTATLTITSLQAEDEADYYCGSYDSNSGGIFGSGTRLTVLG
modifications: 3bG4 amino acid sequence
B4: 3aH6: N-terminal anti-tau clone, Table 6; SEQ ID NO: 423 (protein)
chain: QVQLQESGPSLVKPSQTLSLTCTVSGFSLSSNGVGWVRQAPGKVPEWLGDISSVGKKYANPALKSRLSFTRDTSKSQVSLSLSSVTTEDTAVYYCVKCRDGGVTYGYDIDYWGPGLLVTASSEGKSSGASGESKVDDQAVVTQPSSVSGSLGQSVSITCSGSSGNVGYGDYVSWFQQFHGSAPKLLIYGATNLASGVPARFSGSRSGNTATLTISSLHAEDEADYYCASYDSSSGGVFGSGTRLTVLG
modifications: 3aH6 amino acid sequence
B5: S1E12: anti-tau clone, Table 11; SEQ ID NO: 218 (protein)
scFv: QVQLQESGPSLVKPSQTLSLTCTVSGFSLGSNSVGWVRQAPGKAPEWVAGIDTDGEEGYNPALNSRLSITRDTSKSQVSLSLSSVTSEDTAVYYCGRSYRADGLAYGYVQAIDYWGPGLLVTVSSEGKSSGASGESKVDDRVVRTQPSSVSGSLGQRVSITCSGSFIGISSVGWFQQLPGSGLRTIIVASDGRPSGVPDRFSMSKSGNTATLTISSLQAEDEADYFCGSSDRTQYTGVFGSGTRLTVLG
modifications: S1E12 amino acid sequence

Key:
[1] = test system: hT40, dGA, dGAE and truncated tau fragments; assay: Binding ELISA / epitope mapping of anti-tau scAbs with truncated tau proteins and 13mer peptides; set-up: species or system human; details: for Tau proteins/fragments with positive scAb reactivity: binding ELISA; for Shortest region bound on hT40: incl. 13mer peptides; for Short epitope on hT40: Table 18, '3a' & '3b' series scAbs; for hT40 binding region: second Table 25, mAb format
In short: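 Plates coated with 1 μg/ml tau protein, or 5 μg/ml streptavidin then 1 μg/ml biotinylated 13mer peptide; blocked with 2% MPBS. scAbs added at a starting concentration and double-diluted. Bound scAb detected with HRP anti-human C kappa and read as absorbance.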

[2] = molecular target: T1, hT40 (T441, SEQ ID NO: 1) (Homo sapiens, UniProt P10636); assay: Biacore X100 SPR kinetics of scAbs for hT40; assay type: binding
T1 construct: Full length tau (hT40)
T1 sequence (P10636 1-441 isoform P10636-8): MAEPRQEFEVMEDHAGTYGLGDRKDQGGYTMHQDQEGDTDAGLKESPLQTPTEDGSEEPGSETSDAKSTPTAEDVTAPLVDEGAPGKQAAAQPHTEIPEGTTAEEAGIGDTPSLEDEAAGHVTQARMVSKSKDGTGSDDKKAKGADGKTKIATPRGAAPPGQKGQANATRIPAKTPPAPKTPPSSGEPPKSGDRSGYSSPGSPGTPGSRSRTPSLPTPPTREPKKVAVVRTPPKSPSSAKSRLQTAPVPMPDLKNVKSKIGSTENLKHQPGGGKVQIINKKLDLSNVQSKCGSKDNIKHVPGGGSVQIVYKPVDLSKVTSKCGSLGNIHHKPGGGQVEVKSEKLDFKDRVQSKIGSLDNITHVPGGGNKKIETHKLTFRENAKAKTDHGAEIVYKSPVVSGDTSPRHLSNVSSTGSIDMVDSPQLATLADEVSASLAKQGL
Method: Surface plasmon resonance (SPR) is widely regarded as the gold standard for real time measurement of protein-protein interactions such as antibody binding. All SPR experiments were carried out using a Biacore X100 machine and HBS EP+ running buffer (GE Healthcare). A ‘capture’ method was followed for affinity measurements, where an anti-human constant kappa chain (HuCk) antibody was conjugated to the surface of a CM5 sensor chip using an amine coupling kit and scAb molecules were immobilised via their HuCk domain. Amine coupling is a very common approach for immobilising the ligand to the chip surface. […] The capture antibody was diluted 1/100 in 10 mM Sodium acetate buffer pH 5.0 and passed over the activated chip surface for a period of at least 420 s. Final ligand immobilisation levels over 12,000 RU were deemed to be satisfactory.
(§1) Following immobilisation, the level of each scAb to be captured was identified using the standard SPR equation with a theoretical RMax of 100 RU. Analyte MW refers to the molecular weight of hT40 or dGA/dGAE molecules, while ligand MW refers to the molecular weight of the scAbs tested. RL is the desired capture level and S refers to the stoichiometric ratio:
The scAb to be tested was added only to flow cell 2 so that flow cell 1 could act as a control to subtract any interaction with the analyte and the chip surface. Both single and multi-cycle runs were utilised using wizards developed in the Biacore X100 control software which are both accepted methods of kinetic analysis (Karlsson, R., et al. Analyzing a kinetic titration series using affinity biosensors (2006) Analytical Biochemistry 349:136-47). The multi-cycle protocol was as follows-Three start-up cycles composed of an initial capture, to the desired level, of the scAb to be tested was performed followed by a 30 s injection of glycine buffer pH 2.0 after each cycle to regenerate the chip surface. […] Following three start-up cycles increasing concentrations (0.15625 nM-100 nM) of the target to be tested were added to the chip surface after the desired scAb capture. The target was added for a 120 s association period and 420 s dissociation period followed by another regeneration, 30 s injection of glycine buffer pH 2.0 in between each cycle.
(§2) The single cycle kinetics protocol was similar and utilised the same level of scAb capture. Three start-up cycles were used followed by 5 increasing concentrations of the analyte (6.25 nM-100 nM) for an association period of 120 s followed by a dissociation period of 420 s for each concentration. In single cycle kinetics the regeneration step was performed only after the final analyte concentration was added. Binding responses were analysed in Biacore X100 evaluation software and data fitted to a 1:1 binding model to obtain kinetic and affinity characterisation.

[3] = molecular target: T2, htau40 (Homo sapiens, UniProt P10636); assay: Biacore X100 SPR kinetics of anti-tau mAbs on immobilised htau40; assay type: binding
T2 construct: Full length tau (hT40)
T2 sequence (P10636 1-441 isoform P10636-8): as above
Method: For anti-tau mAb SPR measurements, htau40 was conjugated to the surface of a CM5 sensor chip using amine coupling as explained previously. Briefly, 2 μg/mL htau40 in 10 mM Sodium acetate buffer (pH 4.0) was passed over the activated chip surface (EDC/NHS) in flow cell 2 for a period for 45 s followed by blocking with 1 M ethanolamine-HCl PH 8.5. Flow cell 1 was set up as reference control and blocked simultaneously. Final immobilisation level of htau40 (Rmax) was approximately 250 RU. Following a minimum of three start-up cycles, increasing concentrations (0.78 nM-25 nM) of the mAb in HBS-EP+ buffer was added at a rate of […] to the chip. The mAb was added for a 120 s association period and 600 s dissociation period followed by a regeneration cycle of 30 s injection of glycine buffer pH 1.5 in between each cycle. Binding responses were analysed in Biacore X100 evaluation software and data fitted to a 1:1 binding model to obtain kinetic and affinity characterisation.
For anti-tau mAb SPR measurements (Biacore X100™) and epitope mapping, the same methodologies described above (see Example 16) were followed. Kinetic rates and equilibrium binding constants of additional anti-tau mAbs and the regions recognised on hT40 are given in the Table 25 below

[4] = molecular target: dGA (SEQ ID NO: 5) (Homo sapiens, UniProt P10636); assay: Biacore X100 SPR kinetics of scAbs for dGA; assay type: binding; details: Table 24, scAb, dGA analyte
Chain of dGA (SEQ ID NO: 5) (P10636 614-707): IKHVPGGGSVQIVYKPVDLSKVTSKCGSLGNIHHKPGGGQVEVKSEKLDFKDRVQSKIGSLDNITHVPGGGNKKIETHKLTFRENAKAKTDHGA
Method: Surface plasmon resonance (SPR) is widely regarded as the gold standard for real time measurement of protein-protein interactions such as antibody binding. All SPR experiments were carried out using a Biacore X100 machine and HBS EP+ running buffer (GE Healthcare). A ‘capture’ method was followed for affinity measurements, where an anti-human constant kappa chain (HuCk) antibody was conjugated to the surface of a CM5 sensor chip using an amine coupling kit and scAb molecules were immobilised via their HuCk domain. Amine coupling is a very common approach for immobilising the ligand to the chip surface. The chip surface has a dextran matrix derivatised with carboxyl groups, which after activation with N-hydroxysuccinimide (NHS) and 1-ethyl-3-(3-dimethylaminopropyl) carbodiimide (EDC), form reactive succinimide esters which allows the covalent capturing of the ligand via any available primary amine groups (e.g. Lysine) on the ligand (in this case anti-HuCk antibody). The capture antibody was diluted 1/100 in 10 mM Sodium acetate buffer pH 5.0 and passed over the activated chip surface for a period of at least 420 s. Final ligand immobilisation levels over 12,000 RU were deemed to be satisfactory.
as §1
The scAb to be tested was added only to flow cell 2 so that flow cell 1 could act as a control to subtract any interaction with the analyte and the chip surface. Both single and multi-cycle runs were utilised using wizards developed in the Biacore X100 control software which are both accepted methods of kinetic analysis (Karlsson, R., et al. Analyzing a kinetic titration series using affinity biosensors (2006) Analytical Biochemistry 349:136-47). The multi-cycle protocol was as follows-Three start-up cycles composed of an initial capture, to the desired level, of the scAb to be tested was performed followed by a 30 s injection of glycine buffer pH 2.0 after each cycle to regenerate the chip surface. The regeneration step removed any captured scAb whilst leaving the capture antibody intact and able to repeat the capture for the next cycle. Following three start-up cycles increasing concentrations (0.15625 nM-100 nM) of the target to be tested were added to the chip surface after the desired scAb capture. The target was added for a 120 s association period and 420 s dissociation period followed by another regeneration, 30 s injection of glycine buffer pH 2.0 in between each cycle.
as §2

[5] = Table 26 summary, top scAbs, residues of hT40
[6] = residue numbers of SEQ ID NO: 1 (hT40), CDR Tables 1-11
[7] = Table 23, scAb captured, T441 (hT40) analyte, 1:1 model
[8] = Table 27, mAb format, immobilised htau40
[9] = Table 25, '3a' and '3b' scAbs, hT40
[10] = second Table 25, newly converted mAbs, hT40

Molecule | Epitope [1, 5] | Epitope [1, 6] | ka [2, 7] [M⁻¹ s⁻¹] | kd [2, 7] [s⁻¹] | Short epitope on hT40 [1] | hT40 binding region [1] | ka [2, 9] [M⁻¹ s⁻¹] | kd [2, 9] [s⁻¹] | ka [3, 10] [M⁻¹ s⁻¹] | kd [3, 10] [s⁻¹] | also measured
B1 | 145-157 | 145-157 | 295700 | 0.0003659 | – | – | – | – | – | – | Tau proteins/fragments with positive scAb reactivity ([1]; Table 17, 'C' group scAbs): hT40, 1-319; Shortest region bound on hT40 ([1]; Table 17, 'C' group scAbs): 145-157; Detection scAb (Epitope) ([1]; Table 28 (LoD table), residues of hT40): CC7 (145-157); binding region on hT40 ([1]; amino acid residues of hT40): 145-157; ka [3, 8]: 4.576e+06 M⁻¹ s⁻¹; kd [3, 8]: 0.03164 s⁻¹
B2 | – | 1-49 | – | – | 1-49 | 1-15 | 62940 | 0.0003869 | 1.532e+07 | 0.004751 | –
B3 | – | 1-49 | – | – | 1-49 | 1-15 | 6.669e+06 | 0.05966 | 4.54e+06 | 0.0002964 | Binding region hT40 ([1]; second Table 26, own antibodies): (Binding region hT40 1-15)
B4 | – | 1-49 | – | – | 1-49 | 1-15 | 2.757e+06 | 0.009868 | 3.128e+06 | 0.0001522 | –
B5 | 297-390 | 297-390 | 385000 | 0.000319 | – | – | – | – | – | – | ka [4]: 2.99e+06 M⁻¹ s⁻¹; Kd ([4]; dissociation rate): 0.001627 s⁻¹; Tau proteins/fragments with positive scAb reactivity ([1]; Table 16, NS, S and M clones): hT40, 297-390 (dGA), 297-391 (dGAE); Shortest region bound on hT40 ([1]; Table 16, NS, S and M clones): 297-390

— US20250355001A1, “METHOD FOR DETECTING A TAU PROTEIN FRAGMENT IN A SAMPLE” (GTINVENT LIMITED, priority 2022, published 2025)
